Experiments:
[1] = TAL activity temperature profile of purified enzyme; type: biochemical
Procedure: Six grams of cell pellet, from the 10 liter fermentation of DPD5154 was resuspended in 6.0 mL Buffer A (10 mM Tris-HCl, pH 8.0, 200 μM EDTA) containing one EDTA-free protease inhibitor tablet (Roche Biosciences, Palo Alto, Calif.), 1.0 μg/ml Leupeptin, 1.0 μg/ml Pepstatin, 40 μg/ml Bestatin 5.0 mM CA. Cells were lysed by two passes through a French Pressure Cell at 20,000 PSI, and clarified by centrifugation at 12,000×g for 20 minutes. To the clarified supernatant, 1.0% streptomycin sulfate was added, and the suspension was gently mixed for 15 minutes at 4° C. and then clarified by centrifugation at 12,000×g for 20 minutes. The supernatant was heated at 60° C. for 20 min, and centrifuged again at 12,000×g for 20 minutes. This clarified crude extract sample was loaded onto a Q Sepharose FF 16/10 anion exchange column equilibrated with buffer A in an Akta FPLC system (Amersham, GE Healthcare, Piscataway, N.J.), and eluted with 10 column volumes of gradient from Buffer A, to Buffer A containing 1.0 M NaCl. Five ml fractions were collected from the column and assayed for TAL activity as described above. The fractions containing TAL activity were pooled. To the pooled anion exchange fractions containing TAL activity, saturated (NH4)2SO4 (4.0M) was added to final 30% saturation. After centrifugation at 12,000 g for 20 minutes, additional saturated (NH4)2SO4 (4.0M) was added to the supernatant fraction to a final 50% saturation. The mixture was centrifuged again at 12,000 g for 20 minutes, and the supernatant was removed. […] The purity of the PcTAL protein in the fractions was analyzed by SDS-PAGE. The fractions containing TAL activity with high purity as determined by SDS-PAGE were pooled. […]
The in vitro enzymatic assay using the purified PcTAL was performed as a comparison to the whole cell assay. The temperature profile of the purified PcTAL enzyme (from Example 6) was measured at temperatures varying from 25° C. to 60° C. in 100 mM CAPS buffer, pH 10, containing 1.0 mM tyrosine. […]

[2] = Kinetic parameters of the PcTAL enzyme for tyrosine; type: biochemical; details: from kcat/KM, 45° C., 100 mM CAPS pH 9.5
Procedure: The kinetic parameters of the PcTAL enzyme for tyrosine and phenylalanine were determined at 45° C., in 100 mM CAPS, pH 9.5 buffer. The increase of TAL and PAL activities with increasing substrate concentrations followed the typical Michaelis-Menton equation. The kcat of the enzyme was 1.3 S^−1 for tyrosine, and 3.3 S^−1 for phenylalanine. The KM was 44 μM for tyrosine and 161 μM for phenylalanine. The kcat/KM value was slightly higher for tyrosine (3.0 M^−1 S^−1) than for phenylalanine (2.1 M^−1 S^−1), indicating the enzyme's slight preference for tyrosine (PAL/TAL ratio of 0.7). […] The substrate specificity of the PcTAL enzyme is therefore similar to other known fungal PAL/TAL enzymes, such as that from R. glutinis, with dual specificity for tyrosine and phenylalanine.

[3] = Bioconversion of tyrosine to pHCA by cell suspensions in 50 ml tubes; type: cell-based, E. coli; details: pH 9.9, 0.5 g dcw/L, 20 g/L tyrosine (Example 11)
Procedure: A suspension of DPD5154 cells in ˜75 ml of saline solution (8.5 g NaCl/L) with a cell concentration at an OD550 of 221.47 was used. The desired OD550 of 2.998 (0.989 g dcw/L) was achieved through serial dilution of the original sample. The cell suspension was equilibrated to 50° C., titrated to pH 9.9 and stored at 50° C. A tyrosine stock of 40 g/L at pH 9.9 was also prepared and stored at 50° C. Reactions measuring bioconversion of tyrosine to pHCA by the cell suspension were carried out at the following temperatures: 34° C., 39° C., 47° C., and 59° C. Each reaction was initiated by adding 5.0 ml of the cell suspension to 5.0 ml of the 40 g/L tyrosine solution in a 50 ml disposable conical tube. The final concentration of cells in each reaction was 0.5 g dcw/L. The final concentration of tyrosine in each reaction was 20 g/L (110 mM). All reactions were incubated at the temperatures indicated above with shaking at 180 rpm. Samples (750 μl) were taken at 30, 60, 90, 120 minutes, centrifuged (14,000×g for ˜8 minutes), the supernatants filtered through 0.2 um filters (Costar #8161), and the filtrates diluted using 50 mM Tris/HCl, pH 7.5. The filtrates were analyzed by HPLC for the amount of pHCA as described in General Methods. The optimum reaction temperature among those temperatures tested was determined to be 39° C., and the reaction slowed down dramatically at 59° C. […]
To determine the optimum pH (between pH 9.8-11.0) for the bioconversion reaction of tyrosine to pHCA at 42° C. using strain DPD5154, reactions were performed as described in Example 11. Tyrosine solutions (40 g/L concentration) were titrated to pH 9.8, 10.0, 10.2, 10.5, and 11.0 and stored at 42° C. Reactions were initiated by adding 5.0 ml of cell suspension to 5.0 ml of each tyrosine solution in a 50 ml disposable conical tube. The final concentration of cells in each reaction was 0.5 g dcw/L and the final concentration of tyrosine was 20 g/L (110 mM). Reactions were incubated at 42° C. with shaking at 180 rpm.

B1: PcTAL: thermostable tyrosine ammonia lyase (PAL/TAL) enzyme from Phanerochaete chrysosporium, SEQ ID NO:1 (protein, listed as Phanerochaete chrysosporium)
chain: MPSRIDYYTSSGNGYAQSRKSSAIYPASASTGHAAPSTERKPELLDKFVEAYDELQSYREGKPVIVDGHNLSIPAVAATARFGAAVVLDENPETHERVLQSRRVIVDKVSTQRSVYGVSTGFGGSADTRTSDPLQLGHALLQHQHVGVLPTQTESPLPALPLGDPLATTSMPEAWVRGAILIRMNSLIRGHSGVRWELIEKMGELLRENITPLVPLRGSISASGDLSPLSYIAGTLIGSPAIRVFDGPASYGARRILPSNIALANHGVAPIPLSSKEHLGILNGTAFSASVGALALNEAVHLSLLAQVCTAMGTEAMIGAVGSFDAFIHDTARPHPGQVEVARNVRTLLEDSQMAVKAEDEVHIAEDEGELRQDRYPLRTAAQFLGPQIEDILSAHETVTLECNSTTDNPLIDGETGTVHHGGNFQAMAVTNAMEKTRLAIHHIGKLLFAQATELINPMMNRGLPPNLAATDPSHNYFAKGVDIHLAAYVGELGFLASPVSSHIQSAEMHNQAVNSLALVSARYTISALDVLSLLTAAYLYVLCQALDLRAMHNDLQSSLSAIVRELLPKHFPSAAKRADALLPILERTIFRALNSSSSADCKARMVSVAASTTTPLVDFLSADAALASELANITAFRTELATRAADALTTLRTQYLEGARGAAPASKYLGKTRPVYEFVRVTLNVPMHGRENLHNFEMGPGVEDGIIGNNISTIYEAIRDGKMQNVVMQLVKSIKA
[1]; 55° C.
  TAL activity at 55° C.: 1479 U/g
[1]; 60° C.
  TAL activity at 60° C.: 1431 U/g
[1]; about 55° C. vs 25° C.
  maximum activity of purified enzyme relative to that at 25° C.: about 3 fold
[2]
  PAL/TAL ratio: 0.7
[3]; 34° C.
  pHCA (mM) formed in 2 h: 5.0 mM
[3]; 39° C.
  pHCA (mM) formed in 2 h: 6.2 mM
[3]; 47° C.
  pHCA (mM) formed in 2 h: 4.7 mM
[3]; 59° C.
  pHCA (mM) formed in 2 h: 0.02 mM
